This passage reports p300-dependent acetylation of p53 (western blot, Lys373ac), relative rate and Kd results from article PMC8221199.

Like-named read-outs stand apart in the source and are kept apart here.

One assay deals with acetyltransferase p300 (UniProt Q09472).
The target in assay [1] is p53 N-terminal peptide (Homo sapiens) (UniProt P04637). As to conditions: cited from earlier work.
For assay [2] the target is unchanged. As to conditions: cited from earlier work. This is another data set of the same source.
Assay [3] has the same target. As to conditions: cited from earlier work. This is another data set of the same source.
For assay [4] the target is unchanged. As to conditions: cited from earlier work. This is another data set of the same source.

Chain of p300 IBiD (Q09472 2050-2094): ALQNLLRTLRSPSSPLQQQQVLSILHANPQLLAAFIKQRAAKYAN
Chain of acetyltransferase p300 (Q09472 whole entry): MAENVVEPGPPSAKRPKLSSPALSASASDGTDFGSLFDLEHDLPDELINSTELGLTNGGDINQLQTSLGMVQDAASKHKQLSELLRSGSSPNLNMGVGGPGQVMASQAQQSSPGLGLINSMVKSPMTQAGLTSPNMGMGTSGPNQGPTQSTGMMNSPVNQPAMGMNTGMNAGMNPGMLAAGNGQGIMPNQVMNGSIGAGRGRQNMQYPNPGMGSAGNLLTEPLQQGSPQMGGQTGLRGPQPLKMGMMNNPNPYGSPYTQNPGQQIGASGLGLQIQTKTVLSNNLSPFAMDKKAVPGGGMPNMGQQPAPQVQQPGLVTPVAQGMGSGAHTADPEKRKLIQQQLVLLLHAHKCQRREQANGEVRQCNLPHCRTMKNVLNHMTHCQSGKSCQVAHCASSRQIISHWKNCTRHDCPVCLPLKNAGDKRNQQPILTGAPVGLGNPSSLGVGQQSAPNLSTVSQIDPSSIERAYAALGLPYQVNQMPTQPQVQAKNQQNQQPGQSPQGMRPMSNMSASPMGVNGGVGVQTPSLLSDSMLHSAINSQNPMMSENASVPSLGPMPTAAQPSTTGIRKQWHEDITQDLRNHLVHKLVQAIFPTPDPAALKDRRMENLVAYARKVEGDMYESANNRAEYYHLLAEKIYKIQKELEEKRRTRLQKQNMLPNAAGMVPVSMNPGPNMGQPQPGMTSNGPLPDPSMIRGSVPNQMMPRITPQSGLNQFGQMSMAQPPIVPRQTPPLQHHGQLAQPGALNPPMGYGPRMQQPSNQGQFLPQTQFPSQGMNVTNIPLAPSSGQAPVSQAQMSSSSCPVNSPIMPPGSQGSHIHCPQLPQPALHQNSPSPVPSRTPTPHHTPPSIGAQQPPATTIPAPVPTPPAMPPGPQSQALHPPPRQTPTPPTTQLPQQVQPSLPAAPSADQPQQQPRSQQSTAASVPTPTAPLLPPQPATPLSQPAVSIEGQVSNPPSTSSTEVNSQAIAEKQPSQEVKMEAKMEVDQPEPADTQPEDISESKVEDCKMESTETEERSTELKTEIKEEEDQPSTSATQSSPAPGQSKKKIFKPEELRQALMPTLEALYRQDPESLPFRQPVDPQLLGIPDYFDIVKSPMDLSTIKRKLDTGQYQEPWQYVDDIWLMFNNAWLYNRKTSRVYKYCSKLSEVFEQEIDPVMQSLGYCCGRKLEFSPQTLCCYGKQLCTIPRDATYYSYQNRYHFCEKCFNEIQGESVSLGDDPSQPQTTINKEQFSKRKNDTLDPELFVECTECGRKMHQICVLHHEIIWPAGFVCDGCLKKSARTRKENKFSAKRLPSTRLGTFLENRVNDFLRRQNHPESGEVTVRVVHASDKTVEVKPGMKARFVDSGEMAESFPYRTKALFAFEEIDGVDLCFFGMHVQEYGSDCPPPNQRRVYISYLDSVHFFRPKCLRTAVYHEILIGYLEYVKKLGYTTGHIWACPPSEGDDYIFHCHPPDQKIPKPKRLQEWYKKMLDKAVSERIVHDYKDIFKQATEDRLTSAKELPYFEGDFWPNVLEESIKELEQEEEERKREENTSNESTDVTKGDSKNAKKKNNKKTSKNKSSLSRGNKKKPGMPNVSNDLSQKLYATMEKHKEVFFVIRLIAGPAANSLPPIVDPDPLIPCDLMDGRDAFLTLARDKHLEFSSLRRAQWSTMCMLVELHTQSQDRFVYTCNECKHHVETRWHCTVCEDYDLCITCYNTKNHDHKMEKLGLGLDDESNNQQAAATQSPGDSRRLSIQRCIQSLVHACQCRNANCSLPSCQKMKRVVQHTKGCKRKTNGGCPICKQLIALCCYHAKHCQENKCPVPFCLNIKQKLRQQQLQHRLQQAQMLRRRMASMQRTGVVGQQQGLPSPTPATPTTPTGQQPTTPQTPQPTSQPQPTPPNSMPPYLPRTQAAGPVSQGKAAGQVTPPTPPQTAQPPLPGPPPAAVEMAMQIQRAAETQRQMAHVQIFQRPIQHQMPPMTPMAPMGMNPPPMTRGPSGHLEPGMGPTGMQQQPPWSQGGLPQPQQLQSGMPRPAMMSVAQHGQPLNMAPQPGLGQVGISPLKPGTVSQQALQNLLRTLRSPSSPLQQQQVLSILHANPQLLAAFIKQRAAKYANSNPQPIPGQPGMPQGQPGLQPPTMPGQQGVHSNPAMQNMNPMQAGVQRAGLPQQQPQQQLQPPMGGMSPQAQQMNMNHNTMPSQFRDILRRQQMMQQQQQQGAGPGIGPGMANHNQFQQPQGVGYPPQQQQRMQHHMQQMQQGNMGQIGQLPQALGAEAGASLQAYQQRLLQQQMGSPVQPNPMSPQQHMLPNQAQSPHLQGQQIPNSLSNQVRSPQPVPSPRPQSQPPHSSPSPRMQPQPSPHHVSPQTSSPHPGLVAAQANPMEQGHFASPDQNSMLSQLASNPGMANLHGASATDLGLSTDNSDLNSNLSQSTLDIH
Chain of p300 Taz2 (Q09472 1723-1812): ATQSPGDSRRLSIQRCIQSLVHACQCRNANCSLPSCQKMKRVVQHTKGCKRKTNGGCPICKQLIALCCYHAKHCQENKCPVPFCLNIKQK
Chain of p300 Taz1 (Q09472 323-423): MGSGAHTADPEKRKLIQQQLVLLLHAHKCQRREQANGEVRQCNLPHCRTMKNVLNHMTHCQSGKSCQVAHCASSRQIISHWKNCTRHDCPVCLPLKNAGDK
Chain of p300 Kix (Q09472 563-648): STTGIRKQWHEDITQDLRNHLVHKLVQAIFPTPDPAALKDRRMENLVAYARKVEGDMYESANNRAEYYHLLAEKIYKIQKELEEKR

“semi-synthetic full-length p53 with phosphoserine at positions 15 and 20 (from UniProt P04637 1-393) (natural protein)” had a p300-dependent acetylation of p53 (western blot, Lys373ac), relative rate with acetyltransferase p300 of 2.3 fold.

Regarding p300 Kix (from UniProt Q09472), in assay [1], the Kd is 3 µM.

Regarding p300 Taz2 (from UniProt Q09472), the Kd in assay [2] was 0.02 µM.

Regarding p300 IBiD (from UniProt Q09472), the Kd in assay [3] is 8 µM. Consider p300 Taz1 (from UniProt Q09472), for which, in assay [4], the Kd is 1 µM.
